Measured values published in patent US20180142032A1 (Sanofi, published 2018).
Where “and” joins values, the source holds several entries; their conditions need not be identical. Equal entries are not always repeated.

What was measured:
[1] = target: T1, human LAMP1 at the cell surface (human, UniProt P11279 29-417); test: cell-based or functional assay
T1 sequence: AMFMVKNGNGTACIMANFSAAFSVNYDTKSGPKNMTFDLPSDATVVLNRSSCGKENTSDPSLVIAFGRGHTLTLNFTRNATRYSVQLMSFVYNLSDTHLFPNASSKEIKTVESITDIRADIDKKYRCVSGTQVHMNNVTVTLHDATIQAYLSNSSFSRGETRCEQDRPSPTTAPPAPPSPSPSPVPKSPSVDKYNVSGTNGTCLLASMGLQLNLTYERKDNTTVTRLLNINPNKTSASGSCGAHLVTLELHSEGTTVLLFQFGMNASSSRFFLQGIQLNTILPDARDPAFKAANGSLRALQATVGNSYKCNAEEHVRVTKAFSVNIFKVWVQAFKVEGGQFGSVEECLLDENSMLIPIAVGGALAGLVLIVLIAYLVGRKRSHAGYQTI

[2] = target: T2, hLAMP1_ΔGYQTI (human, UniProt P11279 29-412); test: flow cytometry, transfected 293-F cells
T2 construct: also called pXL5626
T2 sequence: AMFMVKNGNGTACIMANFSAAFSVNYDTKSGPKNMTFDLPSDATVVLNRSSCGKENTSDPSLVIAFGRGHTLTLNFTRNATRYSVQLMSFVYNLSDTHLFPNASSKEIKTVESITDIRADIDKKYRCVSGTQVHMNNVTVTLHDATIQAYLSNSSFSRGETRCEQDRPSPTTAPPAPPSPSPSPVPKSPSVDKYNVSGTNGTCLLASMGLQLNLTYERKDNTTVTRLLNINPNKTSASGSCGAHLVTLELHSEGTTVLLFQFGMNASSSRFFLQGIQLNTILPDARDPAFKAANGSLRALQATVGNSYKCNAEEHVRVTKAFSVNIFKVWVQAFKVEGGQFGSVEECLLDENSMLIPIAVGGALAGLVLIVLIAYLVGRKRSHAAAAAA

[3] = target: T1, human LAMP1 at the cell surface; test: flow cytometry, HCT116 huLAMP1 clone 8
Experimental: HCT116 cells were infected by a lentiviral vector allowing stable integration of the human or the cynomolgus LAMP1 CDS in genomic DNA of cells. Individual clones with different densities of human or cynomolgus LAMP1 cell surface localization were derived from a pool of HCT116 infected cells. […] 100 μL/well of goat anti-human IgG conjugated with Alexa488 (Invitrogen; # A11013) was added for 1 h at 4° C. and washed two times with PBS 1% BSA. The antibody binding was evaluated after centrifugation and resuspension of cells in 100 μl fixing solution (paraformaldehyde at 4% in PBS). Samples were read using Galaxy® Flow Cytometry System (Partec). EC50 values were estimated using BIOST@T-SPEED software.

[4] = target: T1, human LAMP1 at the cell surface; test: flow cytometry, transiently transfected HEK293 cells
Text: (§1) LAMP1 Coding DNA Sequence, RefSeq NM_005561.3 (SEQ ID NO: 23) was cloned internally. The CDS of Macaca mulatta LAMP1, RefSeq XP_001087801 (SEQ ID NO: 27) was also cloned internally. […] Therefore the secreted LAMP1 used in the following example is referred to cynomolgus monkey. Both CDS were cloned into mammalian expression plasmids under CMV enhancer/promoter and SV40 polyA signals. HEK293 cells (Invitrogen; #K9000-10.) were transiently transfected with human LAMP1 or cynomolgus LAMP1 plasmids using FreeStyle™ MAX 293 Expression System according to the manufacturer's instructions. […] 100 μL/well of goat anti-mouse IgG conjugated with Alexa647 (Invitrogen; # A2135) was added for 45 min at 4° C. and washed three times with PBS 1% BSA. The antibody binding was evaluated after centrifugation and resuspension of cells by adding 200 μl/well PBS 1% BSA and read using Guava® easyCyte™ 8HT Flow Cytometry System. EC50 values were estimated using BIOST@T-SPEED software.

[5] = target: T3, cynomolgus monkey LAMP1 at the cell surface (cynomolgus monkey, UniProt P11279 29-417 (human entry)); test: as above
T3 construct: also called cynoLAMP1; cynomolgus LAMP1
T3 chain: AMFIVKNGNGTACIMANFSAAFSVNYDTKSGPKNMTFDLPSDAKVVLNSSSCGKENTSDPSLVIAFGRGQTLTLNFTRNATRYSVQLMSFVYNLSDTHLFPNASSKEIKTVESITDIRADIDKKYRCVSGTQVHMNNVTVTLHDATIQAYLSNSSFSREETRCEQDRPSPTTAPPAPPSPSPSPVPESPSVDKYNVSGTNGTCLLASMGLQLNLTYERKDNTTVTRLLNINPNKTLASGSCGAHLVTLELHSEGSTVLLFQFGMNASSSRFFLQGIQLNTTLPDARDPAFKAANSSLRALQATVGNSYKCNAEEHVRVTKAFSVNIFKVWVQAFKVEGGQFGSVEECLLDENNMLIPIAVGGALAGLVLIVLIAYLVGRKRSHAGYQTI
Text: as §1

[6] = target: T4, LAMP1::histag (human, UniProt P11279 29-382); test: ELISA on secreted LAMP1::histag
T4 construct: extracellular domain without signal peptide, C-terminal 6 His tag, made in HEK293 cells; also called recombinant human LAMP1; human LAMP1 (29-382)
T4 sequence: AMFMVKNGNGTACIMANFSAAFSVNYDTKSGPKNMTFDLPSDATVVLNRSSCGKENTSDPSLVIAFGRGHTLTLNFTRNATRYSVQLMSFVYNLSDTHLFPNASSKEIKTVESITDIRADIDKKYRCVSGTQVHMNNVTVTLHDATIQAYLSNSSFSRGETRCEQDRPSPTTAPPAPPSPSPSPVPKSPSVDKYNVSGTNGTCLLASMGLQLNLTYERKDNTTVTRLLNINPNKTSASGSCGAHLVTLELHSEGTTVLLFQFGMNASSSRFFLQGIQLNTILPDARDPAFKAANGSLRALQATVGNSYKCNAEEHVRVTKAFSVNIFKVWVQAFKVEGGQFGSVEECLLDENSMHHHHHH

[7] = target: T2, hLAMP1_ΔGYQTI; test: flow cytometry, transfected 293-F cells, experiment 1

B1: huMAb1_1 (antibody, human IgG1, kappa)
heavy: not shown
light: DIQMTQSPSSLSASVGDRVTITCKASQDIDRYMAWYQDKPGKAPRLLIHDTSTLQSGVPSRFSGSGSGRDYTLTISNLEPEDFATYYCLQYDNLWTFGGGTKVEIKRTVAAPSVFIFPPSDEQLKSGTASVVCLLNNFYPREAKVQWKVDNALQSGNSQESVTEQDSKDSTYSLSSTLTLSKADYEKHKVYACEVTHQGLSSPVTKSFNRGEC
notes: humanized, VH1-huIgG1 and VL1-huCk
ADCP EC50, 3/1, batch 67130713495 [1]: 0.47 nM and 0.36 nM
ADCP EC50, 3/1, batch 67131354967 [1]: 0.5 nM
ADCP EC50, 3/1, batch 67131617470 [1]: 0.56 nM
ADCP EC50, 6/1, batch 67130713495 [1]: 0.98 nM and 0.34 nM
ADCP EC50, macrophages/target 3/1, batch 67131617438 [1]: 0.28 nM
mean fluorescence [2]: 864
EC50 [3]: 15 nM

B2: MAb1 (antibody, mouse IgG2a, kappa)
heavy: QVQLQQSGAELVKPGASVKMSCKASGYIFTNYNIHWVKKSPGQGLEWIGAIYPGNGDAPYSQKFKDKATLTADKSSSTTYMQLSRLTSEDSAVYYCVRANWDVAFAYWGQGTLVSVSAAKTTAPSVYPLAPVCGDTTGSSVTLGCLVKGYFPEPVTLTWNSGSLSSGVHTFPAVLQSDLYTLSSSVTVTSSTWPSQSITCNVAHPASSTKVDKKIEPRGPTIKPCPPCKCPAPNLLGGPSVFIFPPKIKDVLMISLSPIVTCVVVDVSEDDPDVQISWFVNNVEVHTAQTQTHREDYNSTLRVVSALPIQHQDWMSGKEFKCKVNNKDLPAPIERTISKPKGSVRAPQVYVLPPPEEEMTKKQVTLTCMVTDFMPEDIYVEWTNNGKTELNYKNTEPVLDSDGSYFMYSKLRVEKKNWVERNSYSCSVVHEGLHNHHTTKSFSRTPGK
light: DIQMTQSPPSLSASLGGKVTITCKASQDIDRYMAWYQDKPGKGPRLLIHDTSTLQPGIPSRFSGSGSGRDYSFSISNLEPEDIATYYCLQYDNLWTFGGGTKLEIKRADAAPTVSIFPPSSEQLTSGGASVVCFLNNFYPKDINVKWKIDGSERQNGVLNSWTDQDSKDSTYSMSSTLTLTKDEYERHNSYTCEATHKTSTSPIVKSFNRNEC
notes: murine monoclonal IgG, kappa, from hybridoma; also called murine MAb1
EC50 [4]: 14 nM
EC50 [5]: 44 nM
EC50 [6]: 0.16 nM
mean fluorescence [7]: 1750
